How the values were obtained:
CCR10 [1] = molecular target: T1, CCR10 (Homo sapiens, UniProt Q9NPB9); assay: Spectrum of ligands that bind to CCR10; type: binding
T1 construct: Full length CCR10 expression constructs were made in pIRESpuro expression vector; expressed in transfected cells; HEK293-CCR10)
T1 sequence (Q9NPB9 1-350): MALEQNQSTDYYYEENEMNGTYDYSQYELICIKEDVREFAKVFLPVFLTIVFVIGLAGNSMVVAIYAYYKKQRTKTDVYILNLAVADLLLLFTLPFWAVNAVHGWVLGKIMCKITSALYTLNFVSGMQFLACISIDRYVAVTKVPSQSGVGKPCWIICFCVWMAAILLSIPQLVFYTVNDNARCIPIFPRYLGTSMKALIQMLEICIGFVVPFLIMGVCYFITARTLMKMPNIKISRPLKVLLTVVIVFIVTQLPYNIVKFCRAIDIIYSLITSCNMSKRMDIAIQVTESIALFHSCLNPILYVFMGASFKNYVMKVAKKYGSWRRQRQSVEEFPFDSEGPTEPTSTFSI
Source text: (§1) Furthermore ELC-SK mediated adhesion was abolished in the presence of soluble native ELC as a competitor (FIG. 3A, top row). […] Moreover, radiolabeled ELC was used in a traditional homologous competition assay in the presence of increasing concentrations of unlabeled ELC. […] Taken together, the stalkokine-based adhesion and radiolabeled ligand binding/homologous competition assays indicate that CCR10 is a new chemokine receptor that bound a novel compliment of chemokines.

CXCR4 = molecular target: T2, CXCR4 (Homo sapiens, UniProt P61073); assay: Binding of CXCR4-NSO cells to immobilized stalkokines
T2 construct: host or cells: mouse myeloma NSO
T2 sequence (P61073 whole entry): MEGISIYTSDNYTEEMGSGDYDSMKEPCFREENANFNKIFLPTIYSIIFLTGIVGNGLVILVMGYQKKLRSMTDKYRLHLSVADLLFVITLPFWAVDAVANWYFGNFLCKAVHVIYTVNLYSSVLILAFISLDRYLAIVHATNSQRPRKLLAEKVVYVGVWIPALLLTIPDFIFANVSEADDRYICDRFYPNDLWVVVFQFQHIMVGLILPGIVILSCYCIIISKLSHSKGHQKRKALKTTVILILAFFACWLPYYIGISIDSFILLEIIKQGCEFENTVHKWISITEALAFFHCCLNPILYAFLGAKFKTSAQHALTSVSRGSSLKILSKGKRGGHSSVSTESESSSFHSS
Experimental: (§2) In one set of experiments, five 8 well chamber slides (Lab-Tek II, Nalge Nunc International, Rochester, N.Y.), 250 ul of 10 ug/ml anti-his antibody (R&D Systems, Minneapolis, Minn.) in PBS was added to each well and incubated at room temperature overnight (typically 16 hours). Following, the liquid in each well was aspirated and washed once for approximately 5 minutes with 500 ul of PBS. The wells were then “blocked” (blocked for any additional protein binding sites) with the addition of 250 ul of blocking solution (2% fetal bovine serum, 0.5% BSA in PBS) and incubation for 1 hour at room temp (e.g., 20° C.). The liquid in each well was aspirated and 250 ul of supernatant containing the chemokine-stalk-immobilization domain fusion proteins (SDF1a-FRAC, finetaxin-FRAC, CCL27-FRAC, 1309-FRAC, MIP3a-FRAC, ELC-FRAC, SLC-FRAC, MDC-FRAC, TARC-FRAC, or BRAK-FRAC) or the control supernatant was added to two wells. Each slide contained two wells with control supernatant (from mock-transfected cells) and two wells with the positive control SDF1a (which binds the ubiquitous chemokine receptor CXCR4). The four other wells were for experimental samples. The supernatants were incubated for one hour at room temperature (typically 20° C.), then incubated for an additional hour at 37° C. […] The slide was then ready for addition of cells for assay. […]

CCR10 [2] = molecular target: T1, CCR10; assay: Homologous competition binding of radiolabeled chemokine on HEK293-CCR10 cells
Source text: Human, viral and murine recombinant chemokines were obtained from R&D Systems (Minneapolis, Minn.; http://cytokine.rndsystems.com/cyt_cat/cyt_cat.html). ^125I-labeled ELC and TECK were obtained from Amersham. Full length CCR10 expression constructs were made in pIRESpuro expression vector (Clontech, Palo Alto, Calif.) with a FLAG epitope tag and prolactin signal sequence, and used to generated stable transfectants in HEK293 cells. Transient and stable transfections for CCR10 and stalkokines were done using Superfect reagent (Qiagen, Valencia, Calif.) following manufacturer's protocol. Stably-transfected cells were generated by selection in 2 ug/mL puromycin for 7 days, and expression was confirmed by FACS analysis of the FLAG epitope using anti-FLAG M1 (Sigma, St. Louis, Mo.) and 2′ anti-mouse PE conjugate (Coulter Immunotech, Miami, Fla.).
as §1

CCR7 = molecular target: T3, CCR7 (Homo sapiens, UniProt P32248); assay: Binding of CCR7-NSO cells to immobilized stalkokines
T3 construct: host or cells: mouse myeloma NSO
T3 sequence (P32248 25-378): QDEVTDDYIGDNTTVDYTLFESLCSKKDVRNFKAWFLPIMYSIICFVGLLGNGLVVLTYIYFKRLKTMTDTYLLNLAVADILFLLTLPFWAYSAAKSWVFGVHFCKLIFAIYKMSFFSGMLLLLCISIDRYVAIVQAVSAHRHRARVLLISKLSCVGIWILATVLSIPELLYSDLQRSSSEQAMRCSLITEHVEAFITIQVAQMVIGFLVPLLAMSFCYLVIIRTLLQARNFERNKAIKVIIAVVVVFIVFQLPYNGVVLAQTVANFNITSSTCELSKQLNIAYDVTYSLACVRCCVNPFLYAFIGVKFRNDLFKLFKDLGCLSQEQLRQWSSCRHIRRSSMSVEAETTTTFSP
Experimental: as §2

CCR8 = molecular target: T4, CCR8 (Homo sapiens, UniProt P51685); assay: Binding of CCR8-NSO cells to immobilized stalkokines
T4 construct: host or cells: mouse myeloma NSO
T4 sequence (P51685 whole entry): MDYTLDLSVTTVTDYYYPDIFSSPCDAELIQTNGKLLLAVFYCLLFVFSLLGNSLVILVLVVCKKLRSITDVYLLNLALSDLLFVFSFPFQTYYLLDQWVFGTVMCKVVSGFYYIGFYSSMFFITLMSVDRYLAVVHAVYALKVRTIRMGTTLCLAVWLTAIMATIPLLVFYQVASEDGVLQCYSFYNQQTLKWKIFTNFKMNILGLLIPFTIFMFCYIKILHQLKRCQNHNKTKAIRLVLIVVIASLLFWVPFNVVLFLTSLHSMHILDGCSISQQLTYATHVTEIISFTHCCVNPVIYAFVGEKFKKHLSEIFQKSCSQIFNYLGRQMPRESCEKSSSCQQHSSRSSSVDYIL
Experimental: as §2

CCR10 [3] = molecular target: T1, CCR10; assay: Adhesion of HEK293-CCR10 cells to immobilized stalkokines, with or without soluble chemokine competitors; type: binding; settings: stalkokine immobilized via anti-His anchoring antibody, 500,000 cells, 1.5 hrs at RT
Experimental: To determine ligand binding to CCR10, HEK293-CCR10 cells were used to interrogate chemokine “stalkokines” (SK), i.e., molecules in which discrete chemokine domains were engineered to be tethered to the end of an extended stalk structure. Stalkokines were interrogated using 8-well chamber slides coated first with anti-His anchoring antibody (10 ug/ml in PBS overnight at RT), which were washed and ‘blocked’ (2% FBS/0.5% BSA in PBS); treated with 250 ul of HEK293 cell stalkokine supernatants (1 hr at 37C), and incubated with 500,000 HEK293-CCR10 transfectants (1.5 hrs at RT). Inhibition of adhesion by competition with soluble chemokines was done by incubating cells with 5-10 ug/ml of recombinant chemokines. In all cases, nonadherent cells were removed by washing in PBS; remaining adherent cells were fixed with 1% glutaraldehyde, photoimaged and counted. As a primary screen, this adhesion would reveal putative receptor-ligand interactions.

B1: vMIPII: viral chemokine (protein)
chain: GDTLGASWHRPDKCCLGYQKRPLPQVLLSSWYPTSQLCSKPGVIFLTKRGRQVCADKSKDWVKKLMQQLPVTAR
B1 was tested, and the “Affinity of binding to CCR10” value (CCR10 [1]) was “lower affinity” and the “Binding to Stalkokine form” value (CXCR4) was “yes”.

B2: FK: fractalkine, natural membrane protein with a chemokine domain tethered on a long mucin-like stalk (protein)
chain: QHHGVTKCNITCSKMTSKIPVALLIHYQQNQASCGKRAIILETRQHRLFCADPKEQWVKDAMQHLDRQAAALTRNGGTFEKQIGEVKPRTTPAAGGMDESVVLEPEATGESSSLEPTPSSQEAQRALGTSPELPTGVTGSSGTRLPPTPKAQDGGPVGTELFRVPPVSTAATWQSSAPHQPGPSLWAEAKTSEAPSTQDPSTQASTASSPAPEENAPSEGQRVWGQGQSPRPENSLEREEMGPVPAHTDAFQDWGPGSMAHVSVVPVSSEGTPSREPVASGSWTPKAEEPIHATMDPQRLGVLITPVPDAQA
In the case of B2, the “Binding to Stalkokine form” value (CXCR4) is reported as “yes”.

B3: TECK: thymus expressed chemokine, soluble recombinant (protein)
chain: QGVFEDCCLAYHYPIGWAVLRRAWTYRIQEVSGSCNLPAAIFYLPKRHRKVCGNPKSREVQRAMKLLDARNKVFAKLHHNTQTFQAGPHAVKKLSSGNSKLSSSKFSNPISSSKRNVSLLISANSGL
B3 was tested, and the “Binding of radiolabeled chemokine in homologous competition with cold chemokine” value (CCR10 [2]) was “Nearly identical results” and the “Affinity of binding to CCR10” value (CCR10 [1]) was “high affinity”.

B4: SLC: secondary lymphoid-tissue chemokine, soluble recombinant (protein, UniProt O00585 24-134, looked up)
C-C motif chemokine 21: SDGGAQDCCLKYSQRKIPAKVVRSYRKQEPSLGCSIPAILFLPRKRSQAELCADPKELWVQQLMQHLDKTPSPQKPAQGCRKDRGASKTGKKGKGSKGCKRTERSQTPKGP
B4 was tested, and the “Affinity of binding to CCR10” value (CCR10 [1]) was “high affinity” and the “Binding to Stalkokine form” value (CCR7) was “no”.

B5: I309: stalkokine form of chemokine I309 (protein)
chain: KSMQVPFSRCCFSFAEQEIPLRAILCYRNTSSICSNEGLIFKLKRGKEACALDTVGWVQRHRKMLRHCPSKRKEFGGTFEKQIGEVKPRTTPAAGGMDESVVLEPEATGESSSLEPTPSSQEAQRALGTSPELPTGVTGSSGTRLPPTPKAQDGGPVGTELFRVPPVSTAATWQSSAPHQPGPSLWAEAKTSEAPSTQDPSTQASTASSPAPEENAPSEGQRVWGQGQSPRPENSLEREEMGPVPAHTDAFQDWGPGSMAHVSVVPVSSEGTPSREPVASGSWTPKAEEPIHATMDPQRLGVLITPVPDAQA
modifications: left off: small tags and cut ends
With B5 the “Binding to Stalkokine form” value (CCR8) was “yes, yes”.

B6: ELC-SK: tethered ligand fusion protein: ELC chemokine domain, human fractalkine mucin stalk, myc/poly-histidine immobilization domain (protein)
chain: GTNDAEDCCLSVTQKPIPGYIVRNFHYLLIKDGCRVPAVVFTTLRGRQLCAPPDQPWVERIIQRLQRTSAKMKRRSSEFGGTFEKQIGEVKPRTTPAAGGMDESVVLEPEATGESSSLEPTPSSQEAQRALGTSPELPTGVTGSSGTRLPPTPKAQDGGPVGTELFRVPPVSTAATWQSSAPHQPGPSLWAEAKTSEAPSTQDPSTQASTASSPAPEENAPSEGQRVWGQGQSPRPENSLEREEMGPVPAHTDAFQDWGPGSMAHVSVVPVSSEGTPSREPVASGSWTPKAEEPIHATMDPQRLGVLITPVPDAQA
modifications: left off: small tags and cut ends
In the case of B6, the “Adhesion of HEK293-CCR10 cells to immobilized stalkokine” value (CCR10 [3]) is reported as “adhered very well” and the “Adhesion of HEK293-CCR10 cells to immobilized stalkokine” value (CCR10 [3]; listed as ELC-stalkokine (SK)) is reported as “strong adhesion”.
